Data taken from paper PMC7160140, “Allosteric regulation accompanied by oligomeric state changes of Trypanosoma brucei GMP reductase through cystathionine-β-synthase domain” (Nature Communications, 2020).
Read-outs that look alike come from different tables or passages of the source.

Assays:
[1] = target: T1, TbGMPR (guanosine 5′-monophosphate reductase) (Trypanosoma brucei, UniProt Q57ZS7); assay: biochemical; parameters: gene Tb05.1P6.110
T1 sequence (Q57ZS7 1-491): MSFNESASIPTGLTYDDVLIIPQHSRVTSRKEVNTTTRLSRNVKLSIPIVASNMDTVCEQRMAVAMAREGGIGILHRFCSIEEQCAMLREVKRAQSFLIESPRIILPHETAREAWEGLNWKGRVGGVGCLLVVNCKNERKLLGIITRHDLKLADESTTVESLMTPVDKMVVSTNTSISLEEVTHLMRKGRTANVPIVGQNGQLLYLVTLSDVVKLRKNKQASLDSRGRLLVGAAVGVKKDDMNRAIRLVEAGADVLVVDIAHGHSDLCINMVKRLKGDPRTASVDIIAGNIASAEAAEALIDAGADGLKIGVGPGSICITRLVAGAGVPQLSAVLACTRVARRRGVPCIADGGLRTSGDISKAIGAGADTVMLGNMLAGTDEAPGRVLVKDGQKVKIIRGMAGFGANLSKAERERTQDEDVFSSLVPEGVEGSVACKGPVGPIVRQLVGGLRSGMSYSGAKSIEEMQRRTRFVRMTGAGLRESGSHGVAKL

[2] = target: T2, TbGMPR (guanosine 5′-monophosphate reductase) (Trypanosoma brucei, UniProt Q57ZS7, W115R); assay: tryptophan fluorescence quenching; assay type: binding
T2 construct: gene Tb05.1P6.110; full-length, C-terminal histidine-tag

[3] = target: T2, TbGMPR (guanosine 5′-monophosphate reductase); assay: tryptophan fluorescence quenching (no Kd obtained); assay type: binding
[4] = target: T1, TbGMPR (guanosine 5′-monophosphate reductase); assay: co-crystal structure at […] Å; activation of purified enzyme (EC50); assay type: biochemical; parameters: gene Tb05.1P6.110; wild-type, C-terminal histidine-tag
[5] = target: TbGMPR C318A (inactive mutant of Trypanosoma brucei GMP reductase) (Trypanosoma brucei (ILTat 1.4)); assay: crystal structure; TbGMPR C318A without ligand (C318A apo), 2.80 Å; sitting drop, 4 °C; oligomer from crystal packing by PISA
[6] = target: TbGMPR C318A (inactive mutant of Trypanosoma brucei GMP reductase) (Trypanosoma brucei (ILTat 1.4)); assay: crystal structure; TbGMPR C318A co-crystallised with up to 3 mM GMP (C318A/GMP), 1.90 Å; 4 °C
[7] = target: TbGMPR∆CBS (Trypanosoma brucei GMP reductase lacking the CBS domain) (Trypanosoma brucei (ILTat 1.4)); assay: SEC-SAXS
[8] = target: Trypanosoma brucei guanosine 5'-monophosphate reductase, wild type (Trypanosoma brucei (ILTat 1.4)); assay: SEC-SAXS; no ligand; 4 or 12 mg/mL protein in 50 mM Tris-HCl pH 7.8, 0.5 M KCl, 3 mM EDTA, 1 mM DTT; Shodex KW403-4F; 20 °C; mass from volume of correlation, fractions of tetramer and octamers fitted by OLIGOMER
[9] = target: Trypanosoma brucei guanosine 5'-monophosphate reductase, wild type (Trypanosoma brucei (ILTat 1.4)); assay: crystal structure; wild-type TbGMPR co-crystallised with up to 1 mM GTP (TbGMPR/GTP), 2.50 Å; 20 °C
[10] = target: Trypanosoma brucei guanosine 5'-monophosphate reductase, wild type (Trypanosoma brucei (ILTat 1.4)); assay: SEC-SAXS; with 10 mM GMP; 4 or 12 mg/mL protein in 50 mM Tris-HCl pH 7.8, 0.5 M KCl, 3 mM EDTA, 1 mM DTT; 20 °C; fractions fitted by OLIGOMER
[11] = target: Trypanosoma brucei guanosine 5'-monophosphate reductase, wild type (Trypanosoma brucei (ILTat 1.4)); assay: SEC-SAXS; with 10 mM GTP; 4 or 12 mg/mL protein in 50 mM Tris-HCl pH 7.8, 0.5 M KCl, 3 mM EDTA, 1 mM DTT; 20 °C; fractions fitted by OLIGOMER
[12] = target: Trypanosoma brucei guanosine 5'-monophosphate reductase, wild type (Trypanosoma brucei (ILTat 1.4)); assay: SEC-SAXS; with 10 mM ATP; 4 or 12 mg/mL protein in 50 mM Tris-HCl pH 7.8, 0.5 M KCl, 3 mM EDTA, 1 mM DTT; 20 °C; fractions fitted by OLIGOMER; octamer to tetramers
[13] = substrate: Nc1nc2c(ncn2[C@@H]2O[C@H](COP(=O)(O)O)[C@@H](O)[C@H]2O)c(=O)[nH]1; assay: purified protein; assay type: biochemical, Trypanosoma brucei; settings: NADPH active site; positive cooperativity via CBS domain

Nc1ncnc2c1ncn2[C@@H]1O[C@H](COP(=O)(O)OP(=O)(O)OP(=O)(O)O)[C@@H](O)[C@H]1O [ATP]
EC50 [1]: 160 µM
Kd [2]: 194 ± 45 µM

Nc1nc2c(ncn2[C@@H]2O[C@H](COP(=O)(O)O)[C@@H](O)[C@H]2O)c(=O)[nH]1 [GMP]
tryptophan fluorescence quenching (no Kd obtained) [3]: blue-shifting of the emission spectra of the protein with either GTP or GMP, but not with ATP

Nc1nc2c(ncn2[C@@H]2O[C@H](COP(=O)(O)OP(=O)(O)OP(=O)(O)O)[C@@H](O)[C@H]2O)c(=O)[nH]1 [GTP]
EC50 [4]: 4.8 µM
Kd ([2]; read-out: Kd): 6.75 ± 0.58 µM

TbGMPR C318A (inactive mutant of Trypanosoma brucei GMP reductase) (enzyme)
stoichiometry N [5]: 8
stoichiometry N [6]: 8

TbGMPR∆CBS (Trypanosoma brucei GMP reductase lacking the CBS domain) (enzyme)
stoichiometry N [7]: 4

Trypanosoma brucei guanosine 5'-monophosphate reductase, wild type (enzyme)
Octamer, relaxed (%) [8]: 53.2%
Octamer, twisted (%) [8]: 46.8%
Tetramer (%) [8]: 0%
stoichiometry N [8]: 8
stoichiometry N [9]: 8
Octamer, relaxed (%) [10]: 0%
Octamer, twisted (%) [10]: 97.8%
Tetramer (%) [10]: 2.2%
Octamer, relaxed (%) [11]: 0%
Octamer, twisted (%) [11]: 100%
Tetramer (%) [11]: 0%
Octamer, relaxed (%) [12]: 28%
Octamer, twisted (%) [12]: 11.2%
Tetramer (%) [12]: 60.8%

B1: TbGMPR (guanosine 5′-monophosphate reductase) (Trypanosoma brucei brucei TREU927) (protein)
chain: T1 sequence (Q57ZS7 1-491)
notes: wild-type, C-terminal histidine-tag
K0.5 [13]: 184 ± 3 µM
kcat [13]: 0.2783 ± 0.0025 s⁻¹
kcat/Km [13]: 1520 M⁻¹ s⁻¹
